In the supplement of paper PMC10567573:
± gives the standard deviation.

Experiment: protein stability index of a GFP-peptide fusion (GPS, HEK-293T) (PSI 1-6); higher = more stable
Details: c terminus: a fixed tail appended
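Also: 24-mer peptide tiles fused after GFP, lentivirally expressed, FACS-sorted into six equal bins by GFP/DsRed ratio, decoded by Illumina sequencing, PSI is the read-weighted mean bin number.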

| Sequence | protein stability index (treatment: DMSO) | protein stability index (treatment: MLN4924 1 uM, 8 h) |
| --- | --- | --- |
| VNSSIKTFFCPNDTYNDMATLFFN [CLCN6] | 2.13 ± 0.31 | 2.26 ± 0.14 |
| SCNTWPSMPSYSSCTVTTVQPMDR [TBX5] | 3.11 ± 0.14 | 3.09 ± 0.19 |
| TFTASFSGKVFPFFAVWKKGSCLT [TRIM15] | 2.46 ± 0.47 | 2.34 ± 0.42 |
| VVEVENFLFVLGGEDQWNPNGKHS [KLHL14] | 2.39 ± 0.31 | 2.37 ± 0.19 |
| EIIRKQVSATKAEAEKDGVKVPTT [UBE2R2] | 4.84 ± 0.37 | 4.7 ± 0.25 |
| TSFCGQQFILERGEYPRWDAWSGS [CRYBA1] | 2.77 ± 0.68 | 2.65 ± 0.39 |
| QLRNCLRILMGELSNHHDHHDEFC [BEX3] | 2.28 ± 0.41 | 2.21 ± 0.12 |
| TPEEQGELEPLKGNFDWEAIFDAG [FOXJ1] | 5.29 ± 0.28 | 5.41 ± 0.088 |
| QKAGVTRSGRLILWEAPPLGAGGG [NEK8] | 3.31 ± 0.29 | 2.95 ± 0.32 |
| VKSNTEQMREAFATAFSKLKPESS [ZBED1] | 4.34 ± 0.24 | 4.27 ± 0.18 |
| MWYPEIKHFCPRTPVILVGCQLDL [RHOBTB1] | 2.91 ± 0.57 | 2.6 ± 0.65 |
| RLINHSKCGNCQTKLHDIDGVPHL [KMT5A] | 2.67 ± 0.45 | 2.64 ± 0.36 |
| TRTAEPAESSVPPVTSIGIDNLGL [SLC35F2] | 4.48 ± 0.27 | 4.49 ± 0.11 |
| LLSLDPVQDKTPLYSQLLQAYKWS [MED27] | 2.04 ± 0.22 | 1.97 ± 0.2 |
| DQSDEGSSSQKEESPSTLQVLPDS [MAGEA10] | 5.66 ± 0.21 | 5.56 ± 0.16 |
| MSSYTVAGRNVLRWDLSPEQIKTR [NLN] | 2.99 ± 0.33 | 3.04 ± 0.18 |
| WFQDPTRFTGTMDAFVKIVRHEGT [SLC25A39] | 2.17 ± 0.25 | 2.23 ± 0.37 |
| ALAIKVNLCGHWYYSKACCRSCRP [ADAMTSL2] | 2.43 ± 0.38 | 2.77 ± 0.62 |
| SDCCRKLLSSGFEIDTPDKFGRTC [ANKRD44] | 2.8 ± 0.27 | 2.97 ± 0.33 |
| PTPSTDAEYPANGSGADRIYDLNI [NCK2] | 4.69 ± 0.21 | 4.71 ± 0.19 |
| PSHYDVQDRFRIELSEEGAEGRVV [MOSPD3] | 4.63 ± 0.11 | 4.79 ± 0.33 |
| AQGRAGAPVPEPPKEEQQQALEQF [EPB41L3] | 5.62 ± 0.27 | 5.34 ± 0.3 |

| Sequence | protein stability index (treatment: DMSO) | protein stability index (treatment: MLN4924 1 uM, 8 h) |
| --- | --- | --- |
| EGVISVSEDRTVRVWLKRDSGQYW [WDFY2] | 2.17 ± 0.2 | 2.3 ± 0.12 |
| IWNILDLVVILLSIVAVGFHIFRT [PKD2L1] | 3.15 ± 0.64 | 2.45 ± 0.84 |
| YVGEPLVCEVQVHGGSLLGKKYNW [GFOD1] | 2.61 ± 0.62 | 2.18 ± 0.42 |
| CGWPRGKDAPCYESDTDIYETVAA [DRICH1] | 3.18 ± 0.23 | 3.31 ± 0.27 |
| VIDRKVYNISEFTRRHPGGSRVIS [FADS1] | 2.66 ± 0.26 | 3.07 ± 0.062 |
| SGHGDAHLQEYAGNFQGIRFHYDR [FATE1] | 3.32 ± 0.17 | 3.33 ± 0.1 |
| KYKVHGKEILRTLQDVFCWLPLAT [PPEF2] | 3.08 ± 0.62 | 3.3 ± 1.7 |
| FYMFAWTHVTLLITVTQSHLVIQN [CDS1] | 3.01 ± 0.38 | 3 ± 0.3 |
| GPSNTSHSSSRDSHLSNGLDPVAE [C2CD2L] | 5.337 ± 0.041 | 5.23 ± 0.089 |
| GEQPQFWSKTQVLDWISYQVEKNK [ELF3] | 3.02 ± 0.13 | 3.29 ± 0.33 |
| LKLYYRRLFPYSQYYRWLNYGGVI [PRIM1] | 2.07 ± 0.7 | 2.6 ± 1.2 |
| ETLITTIDSSSSWWTNWVIPAISA [CYB5A] | 2.47 ± 0.63 | 2.48 ± 0.49 |
| VYFKRFYARYSLKSIDPVLMAPTC [CCNC] | 3.11 ± 1.3 | 2.13 ± 0.32 |
| AQRPGITHGVGLVLRVEQQPHLPL [SCNN1D] | 2.59 ± 0.17 | 2.85 ± 0.15 |
| TRHVFTCGRRGIKVWSLTGQVAED [TLE6] | 2.62 ± 0.14 | 2.68 ± 0.25 |
| CLGLSYDGLLGDNQIMPKAGLLII [MAGEA3] | 3.12 ± 0.68 | 2.73 ± 0.61 |
| NVTRHQAECALNERGVEGDFLIRD [NCK2] | 4.35 ± 0.27 | 4.5 ± 0.31 |
| IVATLLILDICEDNVPDPKDVKER [TMEM175] | 2.46 ± 0.67 | 2.49 ± 0.37 |
| AVVRLNKKIYEAKRFTDAGFEHYD [CDC14A] | 2.54 ± 0.38 | 2.52 ± 0.25 |
| CDPGMTAFEPEALGNLVEGLDFHR [CAMK2A] | 4.17 ± 0.096 | 4.2 ± 0.19 |
| ILVYDIANRWSFEGMDRWIKKIEE [RAB40A] | 2.43 ± 0.38 | 2.34 ± 0.16 |
| TPSQEHLKHQTVYRLLKCAPRGKN [FEM1A] | 3.61 ± 0.15 | 3.62 ± 0.12 |

| Sequence | protein stability index (treatment: DMSO) | protein stability index (treatment: MLN4924 1 uM, 8 h) |
| --- | --- | --- |
| TAERKQEQKTGTEAEAADSGAVGA [MFSD9] | 5.56 ± 0.28 | 5.65 ± 0.23 |
| YNNDIDYYAKRNALRAAEVWMDDF [GALNT9] | 2.96 ± 0.076 | 2.99 ± 0.32 |
| FSEQVFKVASSDLVNMGISVVSYT [FLOT1] | 2.66 ± 0.72 | 2.39 ± 0.44 |
| RAYQYTTLTSVQLLDCFGIPVLMA [SLC35F2] | 3.13 ± 0.64 | 2.66 ± 0.85 |
| YYTFHFLYFKDKIFNVAIPRFHMA [FBXO3] | 3.06 ± 0.48 | 2.81 ± 0.2 |
| RKPDYTAYVAMIPQCIKEEDTPSD [ATF4] | 4.47 ± 0.25 | 4.62 ± 0.21 |
| RNTPIEALCENFPEEMATYLRYVR [CSNK1G1] | 2.84 ± 0.26 | 2.9 ± 0.56 |
| TGECKELEKKNEALKERADSLAKE [ATF4] | 5.54 ± 0.3 | 5.59 ± 0.18 |
| TSDASFHPAFLPQRQAIKGAFYRR [KCNG1] | 3.62 ± 0.097 | 3.66 ± 0.13 |
| KMLRKEAAARCVVLDCRPYLAFAA [DUSP5] | 2.77 ± 0.63 | 2.51 ± 0.44 |
| GGGGTQRLPRAIGMSLAKELIFSA [AUH] | 2.54 ± 0.21 | 2.69 ± 0.58 |
| LSEPDPSHTLEERVVHWYFKLLDK [SMOC2] | 2.61 ± 0.46 | 2.84 ± 0.29 |
| NRFVQLSGRPHLPGKKKIRWDPVR [KLHDC10] | 2.5 ± 0.6 | 2.49 ± 0.52 |
| PIVNISEVLGPLCLMLLMGTVHCQ [PHTF1] | 3.34 ± 0.24 | 3.17 ± 0.22 |
| RCVKSIIRQVLQGLDYLHSKCKII [SRPK2] | 2.73 ± 0.88 | 2.79 ± 0.59 |
| EEIRGGGLLKYCSLLVHGFKPACM [TENT5D] | 3.11 ± 0.5 | 2.35 ± 0.67 |
| YCESHAKARVKPPEGYDVVAVYPN [PDLIM4] | 3.74 ± 0.38 | 4.08 ± 0.25 |
| GVGGAERLVLDAALALQARGCSVK [ALG2] | 3.22 ± 0.24 | 3.28 ± 0.48 |
| QFGQDGPISVHCSAGVGRTGVFIT [PTPRD] | 2.46 ± 0.48 | 2.15 ± 0.22 |
| KFLEICKLSGFMSKLVPAIQNAHK [TPRG1] | 2.27 ± 0.74 | 2.81 ± 1 |
| SVKIPVRNHGILMETHKELKPLLS [LYSMD4] | 2.86 ± 0.13 | 3.17 ± 0.36 |
